Experiments:
[1] = molecular target: CH5-1 (nH5 heat-cycled three times 25 to 85 C), H5 of A/Vietnam/1203/04
[2] = molecular target: CH5-2 (nH5 heat-cycled at pH 2, back to pH 7), H5 of A/Vietnam/1203/04
[3] = molecular target: CH5-3 (nH5 heat-cycled at pH 12, back to pH 7), H5 of A/Vietnam/1203/04
[4] = molecular target: CH5-4 (nH5 incubated with 100 mM glucose-6-phosphate for 67 h at 80 C), H5 of A/Vietnam/1203/04
[5] = molecular target: cFVIII-5: Helixate FVIII kept at 95 C for 5 minutes
[6] = molecular target: cross-beta FVIII-1 (cFVIII-1): Helixate FVIII kept at 4 C for 20 hours, stored at -80 C
Target sequence (chain, as listed by the source): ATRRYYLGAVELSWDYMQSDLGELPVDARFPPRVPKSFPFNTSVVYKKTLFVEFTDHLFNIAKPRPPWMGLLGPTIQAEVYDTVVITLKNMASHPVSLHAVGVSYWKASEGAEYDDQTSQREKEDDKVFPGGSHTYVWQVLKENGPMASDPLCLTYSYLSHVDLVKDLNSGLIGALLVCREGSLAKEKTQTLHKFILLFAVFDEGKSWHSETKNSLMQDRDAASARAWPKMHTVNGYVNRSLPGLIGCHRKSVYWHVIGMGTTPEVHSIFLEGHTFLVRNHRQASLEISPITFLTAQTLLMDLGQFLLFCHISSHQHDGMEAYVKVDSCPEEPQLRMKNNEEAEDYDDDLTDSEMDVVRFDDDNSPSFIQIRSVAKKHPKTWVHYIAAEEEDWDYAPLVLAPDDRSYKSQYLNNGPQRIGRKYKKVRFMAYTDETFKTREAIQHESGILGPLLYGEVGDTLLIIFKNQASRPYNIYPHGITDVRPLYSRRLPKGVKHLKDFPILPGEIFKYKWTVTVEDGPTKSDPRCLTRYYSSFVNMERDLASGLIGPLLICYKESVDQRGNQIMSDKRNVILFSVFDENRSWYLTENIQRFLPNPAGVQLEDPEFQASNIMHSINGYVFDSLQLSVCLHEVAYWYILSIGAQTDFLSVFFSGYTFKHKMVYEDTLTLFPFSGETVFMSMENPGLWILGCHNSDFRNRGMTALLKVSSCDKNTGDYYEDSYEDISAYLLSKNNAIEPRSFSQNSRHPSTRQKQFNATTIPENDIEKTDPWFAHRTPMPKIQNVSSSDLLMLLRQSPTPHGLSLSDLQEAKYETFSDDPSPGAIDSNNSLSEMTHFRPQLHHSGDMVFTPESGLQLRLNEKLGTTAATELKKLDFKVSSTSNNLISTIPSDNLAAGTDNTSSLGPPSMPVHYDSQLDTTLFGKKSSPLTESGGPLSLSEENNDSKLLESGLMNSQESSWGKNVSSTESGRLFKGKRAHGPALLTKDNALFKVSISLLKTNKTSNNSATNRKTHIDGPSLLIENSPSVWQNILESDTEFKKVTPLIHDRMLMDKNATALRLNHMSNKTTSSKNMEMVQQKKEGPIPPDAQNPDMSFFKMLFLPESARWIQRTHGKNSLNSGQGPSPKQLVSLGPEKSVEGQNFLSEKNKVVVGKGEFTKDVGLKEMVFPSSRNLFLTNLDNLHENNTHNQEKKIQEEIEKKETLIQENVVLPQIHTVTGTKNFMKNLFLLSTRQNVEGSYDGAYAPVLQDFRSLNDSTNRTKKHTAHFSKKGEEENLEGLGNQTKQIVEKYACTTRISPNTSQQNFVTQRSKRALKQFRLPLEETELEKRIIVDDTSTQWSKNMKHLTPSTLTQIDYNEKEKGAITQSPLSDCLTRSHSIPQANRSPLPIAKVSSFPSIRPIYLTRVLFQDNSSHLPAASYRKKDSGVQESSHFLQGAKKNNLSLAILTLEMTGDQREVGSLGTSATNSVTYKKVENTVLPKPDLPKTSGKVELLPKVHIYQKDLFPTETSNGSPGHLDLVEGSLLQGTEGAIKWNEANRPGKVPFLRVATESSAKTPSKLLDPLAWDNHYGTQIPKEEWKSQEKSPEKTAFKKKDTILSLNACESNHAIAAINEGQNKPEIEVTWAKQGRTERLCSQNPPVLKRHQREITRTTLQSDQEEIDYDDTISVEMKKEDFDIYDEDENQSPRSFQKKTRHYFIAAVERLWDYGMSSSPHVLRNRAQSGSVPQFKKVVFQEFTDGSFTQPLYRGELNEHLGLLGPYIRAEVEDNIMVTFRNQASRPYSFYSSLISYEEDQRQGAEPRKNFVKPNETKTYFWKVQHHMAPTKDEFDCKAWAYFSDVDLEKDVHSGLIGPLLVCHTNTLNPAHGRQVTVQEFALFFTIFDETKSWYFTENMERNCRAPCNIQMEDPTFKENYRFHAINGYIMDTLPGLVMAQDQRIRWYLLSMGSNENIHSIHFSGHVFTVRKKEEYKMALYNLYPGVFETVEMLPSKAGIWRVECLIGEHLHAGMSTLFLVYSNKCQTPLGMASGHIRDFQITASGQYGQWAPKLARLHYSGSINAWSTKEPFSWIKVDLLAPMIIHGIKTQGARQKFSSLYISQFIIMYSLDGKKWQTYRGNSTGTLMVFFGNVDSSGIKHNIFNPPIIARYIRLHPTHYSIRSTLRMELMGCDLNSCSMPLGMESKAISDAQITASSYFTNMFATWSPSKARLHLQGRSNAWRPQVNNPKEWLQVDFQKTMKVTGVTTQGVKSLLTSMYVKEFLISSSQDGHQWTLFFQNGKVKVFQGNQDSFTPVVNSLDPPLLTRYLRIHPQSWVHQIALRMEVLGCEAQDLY

[7] = molecular target: cross-beta factor VIII form 12: Helixate FVIII incubated for 1 week at 37 C, stored at 4 C, P00451
[8] = molecular target: T1, cross-beta nOVA: ovalbumin (chicken egg-white albumin) dissolved at 1 mg/ml in PBS, P01012
T1 chain: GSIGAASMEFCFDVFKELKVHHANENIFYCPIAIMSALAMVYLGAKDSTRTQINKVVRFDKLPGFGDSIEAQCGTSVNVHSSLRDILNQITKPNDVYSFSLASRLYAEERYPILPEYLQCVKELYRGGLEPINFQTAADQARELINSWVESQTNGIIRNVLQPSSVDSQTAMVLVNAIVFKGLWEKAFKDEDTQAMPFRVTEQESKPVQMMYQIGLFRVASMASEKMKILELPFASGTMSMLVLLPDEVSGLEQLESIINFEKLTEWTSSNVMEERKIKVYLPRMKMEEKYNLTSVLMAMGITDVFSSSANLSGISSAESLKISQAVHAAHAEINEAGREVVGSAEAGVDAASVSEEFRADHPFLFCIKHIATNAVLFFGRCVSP

[9] = molecular target: T2, dOVA-1: ovalbumin 5.2 mg/ml in HBS, acidified with HCl, 40 minutes at 37 C, neutralized, P01012
T2 chain: T1 chain

[10] = molecular target: T3, dOVA-2: ovalbumin 1 mg/ml in PBS, five heat cycles 30 to 85 C, P01012
T3 chain: T1 chain

[11] = molecular target: T4, dOVA-3: ovalbumin 1 mg/ml in PBS, about 16 h at 75 C, P01012
T4 chain: T1 chain

[12] = molecular target: non-treated H5 (nH5) of H5N1 strain A/Vietnam/1203/04 (Protein Sciences)

Sequence of cross-beta factor VIII form 12: Helixate FVIII incubated for 1 week at 37 C, stored at 4 C, P00451 (P00451 whole entry, looked up): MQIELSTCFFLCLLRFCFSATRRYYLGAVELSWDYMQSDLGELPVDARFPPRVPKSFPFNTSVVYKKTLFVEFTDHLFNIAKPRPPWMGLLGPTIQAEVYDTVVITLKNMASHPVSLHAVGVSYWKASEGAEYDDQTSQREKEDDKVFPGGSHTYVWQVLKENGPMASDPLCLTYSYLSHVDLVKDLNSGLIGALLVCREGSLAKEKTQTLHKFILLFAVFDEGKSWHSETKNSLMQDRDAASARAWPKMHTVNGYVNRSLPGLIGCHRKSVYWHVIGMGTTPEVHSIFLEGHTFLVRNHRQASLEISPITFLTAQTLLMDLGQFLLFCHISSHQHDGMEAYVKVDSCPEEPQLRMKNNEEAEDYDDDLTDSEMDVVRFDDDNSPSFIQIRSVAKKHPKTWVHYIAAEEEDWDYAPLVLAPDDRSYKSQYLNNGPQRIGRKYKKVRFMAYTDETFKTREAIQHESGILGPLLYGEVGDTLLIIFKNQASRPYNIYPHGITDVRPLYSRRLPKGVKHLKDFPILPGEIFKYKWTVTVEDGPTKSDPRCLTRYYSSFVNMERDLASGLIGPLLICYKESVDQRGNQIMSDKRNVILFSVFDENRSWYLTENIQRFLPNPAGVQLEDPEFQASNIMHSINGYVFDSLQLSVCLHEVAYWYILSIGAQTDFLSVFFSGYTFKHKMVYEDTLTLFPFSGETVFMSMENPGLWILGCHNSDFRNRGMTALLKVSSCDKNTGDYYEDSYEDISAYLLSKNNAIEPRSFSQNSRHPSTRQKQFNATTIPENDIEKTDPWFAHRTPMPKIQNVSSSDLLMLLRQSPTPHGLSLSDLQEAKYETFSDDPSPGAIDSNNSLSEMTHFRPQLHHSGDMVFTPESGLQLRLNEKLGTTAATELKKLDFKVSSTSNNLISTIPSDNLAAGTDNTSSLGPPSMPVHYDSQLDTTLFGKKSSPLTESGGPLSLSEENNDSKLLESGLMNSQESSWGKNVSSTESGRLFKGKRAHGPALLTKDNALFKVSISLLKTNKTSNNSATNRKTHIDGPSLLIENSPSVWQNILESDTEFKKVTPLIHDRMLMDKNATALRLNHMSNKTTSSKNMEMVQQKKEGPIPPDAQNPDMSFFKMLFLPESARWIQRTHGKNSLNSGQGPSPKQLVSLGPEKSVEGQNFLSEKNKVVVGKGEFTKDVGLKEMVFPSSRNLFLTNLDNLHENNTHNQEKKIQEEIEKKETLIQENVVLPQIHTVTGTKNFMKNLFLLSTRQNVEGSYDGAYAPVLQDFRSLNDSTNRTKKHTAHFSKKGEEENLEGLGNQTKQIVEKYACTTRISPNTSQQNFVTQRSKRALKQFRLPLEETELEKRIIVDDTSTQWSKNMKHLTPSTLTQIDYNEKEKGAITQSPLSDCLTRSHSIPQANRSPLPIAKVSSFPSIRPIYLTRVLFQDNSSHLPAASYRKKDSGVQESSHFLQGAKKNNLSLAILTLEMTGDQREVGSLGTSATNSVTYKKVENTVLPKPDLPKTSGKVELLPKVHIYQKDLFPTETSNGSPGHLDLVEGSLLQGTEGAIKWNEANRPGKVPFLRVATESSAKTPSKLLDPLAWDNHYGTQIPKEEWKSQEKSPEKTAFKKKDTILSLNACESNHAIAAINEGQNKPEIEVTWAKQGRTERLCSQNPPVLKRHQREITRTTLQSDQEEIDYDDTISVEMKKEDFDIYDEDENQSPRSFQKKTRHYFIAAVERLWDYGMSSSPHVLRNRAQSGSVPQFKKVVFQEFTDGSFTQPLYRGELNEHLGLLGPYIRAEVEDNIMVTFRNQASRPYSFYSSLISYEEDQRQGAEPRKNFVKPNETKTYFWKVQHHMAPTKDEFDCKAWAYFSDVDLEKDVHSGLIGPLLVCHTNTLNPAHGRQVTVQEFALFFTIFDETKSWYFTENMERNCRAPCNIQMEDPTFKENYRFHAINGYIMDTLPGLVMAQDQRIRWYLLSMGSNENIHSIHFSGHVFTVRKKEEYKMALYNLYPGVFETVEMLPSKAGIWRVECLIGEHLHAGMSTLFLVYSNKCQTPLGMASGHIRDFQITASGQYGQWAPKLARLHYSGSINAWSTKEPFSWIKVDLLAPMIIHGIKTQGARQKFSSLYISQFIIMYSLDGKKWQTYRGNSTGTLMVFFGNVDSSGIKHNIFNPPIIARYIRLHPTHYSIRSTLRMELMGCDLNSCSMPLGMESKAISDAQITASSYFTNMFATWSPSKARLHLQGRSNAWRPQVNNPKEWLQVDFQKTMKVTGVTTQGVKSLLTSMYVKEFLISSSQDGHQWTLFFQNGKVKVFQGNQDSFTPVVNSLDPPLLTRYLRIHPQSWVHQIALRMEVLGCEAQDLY
Sequence of cFVIII-5: Helixate FVIII kept at 95 C for 5 minutes (chain, as listed by the source): as the sequence (chain, as listed by the source) above

B1: tissue type plasminogen activator (tPA; Actilyse, Boehringer-Ingelheim) (protein)
chain: SYQVICRDEKTQMIYQQHQSWLRPVLRSNRVEYCWCNSGRAQCHSVPVKSCSEPRCFNGGTCQQALYFSDFVCQCPEGFAGKCCEIDTRATCYEDQGISYRGTWSTAESGAECTNWNSSALAQKPYSGRRPDAIRLGLGNHNYCRNPDRDSKPWCYVFKAGKYSSEFCSTPACSEGNSDCYFGNGSAYRGTHSLTESGASCLPWNSMILIGKVYTAQNPSAQALGLGKHNYCRNPDGDAKPWCHVLKNRRLTWEYCDVPSCSTCGLRQYSQPQFRIKGGLFADIASHPWQAAIFAKHRRSPGERFLCGGILISSCWILSAAHCFQERFPPHHLTVILGRTYRVVPGEEEQKFEVEKYIVHKEFDDDTYDNDIALLQLKSDSSRCAQESSVVRTVCLPPADLQLPDWTECELSGYGKHEALSPFYSERLKEAHVRLYPSSRCTSQHLLNRTVTDNMLCAGDTRSGGPQANLHDACQGDSGGPLVCLNDGRMTLVGIISWGLGCGQKDVPGVYTKVTNYLDWIRDNMRP
tPA mediated plasminogen activation assay [1]: cH5-1 (50% of standard)
tPA mediated plasminogen activation assay [2]: cH5-2 (150% of standard)
tPA mediated plasminogen activation assay [3]: cH5-3 (200% of standard)
tPA mediated plasminogen activation assay [4]: cH5-4 (37% of standard)
tPA/Plg activation assay, compared to a misfolded ovalbumin standard [5]: cross-beta fVIII forms 1, 12 and 5 is approximately 50, 75 and 125%
tPA/Plg activation assay, compared to a misfolded ovalbumin standard [6]: cross-beta fVIII forms 1, 12 and 5 is approximately 50, 75 and 125%
tPA/Plg activation assay, compared to a misfolded ovalbumin standard [7]: cross-beta fVIII forms 1, 12 and 5 is approximately 50, 75 and 125%
tPA activation potency, activation at 10 ug/mL (% of reference) [8]: 48.8
tPA activation potency, activation at 25 ug/mL (% of reference) [8]: 48.1
tPA activation potency, activation at 10 ug/mL (% of reference) [9]: 97.4
tPA activation potency, activation at 25 ug/mL (% of reference) [9]: 136
tPA activation potency, activation at 10 ug/mL (% of reference) [10]: 107
tPA activation potency, activation at 25 ug/mL (% of reference) [10]: 107
tPA activation potency, reference dOVA-2 at 80 ug/mL (column 10 ug/mL) (% of reference) [10]: 100
tPA activation potency, reference dOVA-2 at 80 ug/mL (column 25 ug/mL) (% of reference) [10]: 100
tPA activation potency, activation at 10 ug/mL (% of reference) [11]: 60.9
tPA activation potency, activation at 25 ug/mL (% of reference) [11]: 79
tPA mediated plasminogen activation assay [12]: nH5 (140% of standard)

Reference: US20090142377
